B1: Pistol ribozyme (parent)
chain: GGGUCGUUGUUCCAUAAUCGCGUGGAUAUGGCACGCAAGUUUCUACCGGGCACCGUAAAUGUCCGACUGGAGCCGUUCGGGCGGCUAUAAACAGACCUCAGGCCCGAAGCGUGGCGGCACCUGCCGCCGGUGGUAAAAAAGAUCGGAAGAGCACACGUCU

Variants of: B1
Assay: aptazyme ON/OFF ratio, guanine; higher = stronger switching; co-transcriptional cleavage with and without guanine

Variant	aptazyme ON/OFF ratio
G9U U10G U11A C12U C13A	1.21
U7G G9U C12G	1.42
U7G U8A G9A U10A U11A C12A C13U	1.12
U8C G9C U10C U11G C12G	1.11
U7G G9C U11A	2.57
U8G G9A U10G U11G C12U C13G	1.46
U8A U11C C12U	1.54
U7A U8A G9U U10G U11A C12U	1.07
U7C U8G C13G	1.16
U7G U8C G9A U10A U11C C13U	1.08
U8A G9A U11G C12G C13A	1.23
U7A U8C G9U U11G C12A	1.09
U8A U10C U11A C12G C13U	1.34
U8A U10C U11G C12U C13A	1.26
U8C G9U U10A U11C C12A	1.37
U8A U10C U11C C12A	1.08
U8A G9A U10G C12A C13G	1.15
U7C G9U U10C U11A C12A C13G	1.04
U7A U8G G9C U11A	2.34
U7C G9U U11A	1.41
G9U U10C U11A C13A	1.31
U7A U8C U10G U11C C12G	2.72
U8G C12U	1.64
U7G U10G U11C C12U C13U	1.25

Variant	aptazyme ON/OFF ratio
U7C U8G G9A U10A U11G C12A C13G	1.19
U7A U8C U10A U11A C13A	1.2
U7G U11G C12G	1.23
U8A G9C U11G C12G C13U	1.07
U7G U8C G9A U10C U11C C12U C13G	1.04
U7A G9A U10G U11C C12G C13G	1.18
U7A U8A G9U U10A U11A	1.44
U7C U8G G9C U10A U11C C12A C13G	1.11
U7A U8G G9U U10A U11A C13A	1.48
U7C U8C U10G C12U	1.11
U7A U8C U10A U11C C12U C13G	1.07
U7G U8G U11G C12U C13A	1.5
U7A G9U U11G C12A C13A	1.18
U7A U8G G9C U10G U11G C12A C13A	1.18
U7A U8C G9C U11C C12U C13A	1.04
U7A U8G G9C U11C C12A C13A	1.17
U7A U8A U10A	1.05
U7C U8G U10A U11G C12A C13A	1.12
U8C G9A U10C U11A C12A	1.44
U7G U8A G9U U10A C12G	1.06
U7C U8C G9A U10C U11A C12G C13U	1.13
U7C G9C U11A C13U	1.02
G9A U10C U11G C13G	1.18
U8G G9A U10A U11G	1.55

Variant	aptazyme ON/OFF ratio
G9U U11C C12U C13U	1.34
U7C G9C U10G U11G	1.11
U7G U8A G9U U11A C12U C13U	1.07
U7A U8G G9C U10C U11A C13U	1.22
G9C U11G C13G	1.05
U8A G9U U10C U11G C12U C13G	1.14
U7C G9U U10G U11G	1.11
U7C U8G G9A U10G C12G C13A	1.25
U8C G9C U10G U11C C12A C13G	1.14
U7C U8C G9A U10C C12G	1.33
U7C U8A G9A U10A U11C C12U	1.09
U7C G9U U11A C13U	1.25
U7G U8C G9A U10C U11A C12U C13U	1.02
U7C U8C U10G U11C C13U	1.16
U7G U11C C12U C13G	1.1
U7G U8G G9U U11C C13U	1.41
U7G U8G G9C U10A U11C C13A	1.07
U7C U8A G9U U10G U11A C12U C13U	1.1
U7G U8G G9A U10G U11G C12U C13U	1.11
U8A G9C U10C C12G C13A	1.07
U7G U8A G9A U10A U11A C12A	1.18
U7C U11C	1.16
U7C U8C G9A U10A U11A C12U C13U	1.11
U8A G9A U10C U11C C12G C13U	1.07

Variant	aptazyme ON/OFF ratio
U7A U8G G9C U11C C12A C13U	1.66
U8C G9U U10C C12U C13U	1.16
U7G U8C G9U U11C C12A C13A	1.36
U7A G9C U10C U11C	0.989
U7A U8C G9C U10G U11C C12U	1.09
U7A U8C U10C C12A	1.32
U7A U8A U11A C13G	1.09
U7A U8C G9U U10G C12G C13A	1.19
U7A G9C U10A U11G C12G C13G	1.12
U7A U8A G9U U10C U11C C13A	1.04
U7C U10G C12G C13G	1.13
U7A G9A U10A U11A C13G	1.08
U8C U11A C12A C13U	1.28
U7G U8A G9U U11A C12G C13A	1.06
G9U U10G U11C C13A	1.26
U7C U8G G9U U10G U11A	1.13
U7G U8C G9A U10G U11C C13A	1.14
U8G G9C U10G U11A C13G	1.03
U7A G9A U10G C12G C13U	1.18
U7G U8A G9U U10G C12G C13A	1.05
U7C U8G G9C U10C U11C C13U	1.02
U7G G9C U10G C12G C13U	1.31
U7A U8A U10A C13U	1.06
U7C U8A G9U U10C C12G C13G	1.28

Variant	aptazyme ON/OFF ratio
U7A G9A U10C U11A C12U C13A	1.2
U8C G9U U11C C12U C13A	1.04
G9U U10A C12A C13U	1.09
U7C U8A U10G U11A C12A C13U	1.24
U7G U8A C12A C13A	1.27
U7C U8C G9C U10A C12U C13A	1.11
U10G C12U C13G	1.28
U7C G9C U11G C12G C13G	1.09
U7A G9A U11G C12U C13G	1.2
U7G G9U U10G U11G C12G C13U	1.27
U10C U11A	1.47
U7C G9A U10A	1.88
U7A G9C U10A U11G C12U C13G	1.07
U7A U8C G9C U10G C12U C13G	1.11
U7G U8G G9C C12A C13A	1.22
U7A U10A U11G C12G C13U	1.16
U8G G9U C13G	1.1
U7G U10C U11A C13A	1.08
U7G U8A G9A U10G U11G C12U C13A	1.4
U7C U8C U10C C12U C13U	1.45
U7G G9A U10A U11A C12U C13A	1.12
U7G G9C U10C U11C C12G	1.14
U7G U8A G9U U10A C12G C13A	1.05
U7G G9C U10G U11G C12U C13A	1.15

Variant	aptazyme ON/OFF ratio
U8G G9C U10C C12A C13A	1.05
U7G U8C G9U U10C C13G	1.12
U8A U11C C12U C13U	1.37
U7C U8A G9U U11G C12G	1.15
U7A U10A U11G C13G	1.3
U7C U8A G9A U11A C12G C13U	1.19
U7C U8C G9A U10G U11C C12G C13G	1.26
U7C U8G G9A U11A C12A C13A	1.3
U7G U8A G9C U10G U11C C12A	1.04
U7A U8C G9U U11C C12A C13G	1.1
U7C U8C U10A U11C C12A C13U	1.15
U7C U8A G9U U11G C13A	1.17
U7A U8C G9U U10A C12U C13G	1.17
U8A G9A U11G C12G C13G	1.26
U7A U10C U11C	1.03
U7A U8C G9A U10G U11C C12A	1.19
U7G G9C U10A U11G C12A C13U	1.14
G9C U10A U11G C13G	1.09
U8G U10C U11C C12A	1.09
U8G G9A U10C U11C C12U C13A	1.04
U7A U8C G9U U11C C12U C13G	1.04
G9C U10G U11G C13U	1.13
U7A U8C G9U U10A U11C C12U C13G	1.12
U7G U8A U10G C12A	1.03

Variant	aptazyme ON/OFF ratio
U7C U8C G9U U10A U11G C12U C13G	1.13
U7G U8G U11C C13U	1.25
U8C G9U U10A U11A C12G	1.32
U7A U8C G9U U10C C12A C13G	1.29
U7A U8G G9C U10C C12G	1.4
U8G G9A U10A U11C C12A C13U	1.32
U7C U8C G9U U10G U11A C12A C13G	1.08
U7C U8G G9A U10G C12A C13A	1.12
U7C G9A U10C U11G C13A	1.19
U7C U8G U10A	2.08
U7G U8G G9C U10C U11G C12G C13G	1.17
U8C U10G C12G C13G	1.12
G9A U10G U11C C12G	1.33
U7G G9A U10C U11A C12A C13A	1.11
U7C U8A G9U C12G	1.16
U8C U10C U11G C12A	1.15
U7G G9C U10C C12G	1.29
U8G G9C U10C U11C C12A C13U	1.07
U7A U8G U10C U11C C13U	1.12
U7C G9U U10A C12U C13U	1.22
U7G U8A G9U U10C U11G C12U C13G	1.07
U7A U8A G9U U10G U11C C13U	1.02
U7C U8A G9A U10C U11A C13G	1.08

Source: the RNAGym collection of RNA variant scans (doi:10.1021/acssynbio.7b00057)
